Assay [1] concerns the target T1, recombinant human CHI3L1 (human, UniProt P36222 22-383).
T1 construct: also called rCHI3L1; human rCHI3L1
Description: phage ELISA (4th round single clone screening): coated protein, rescued phage supernatant, anti-M13-HRP, OD450.

The target of assay [2] is T2, mouse rCHI3L1 (mouse, UniProt Q61362 30-389, limits assumed).
T2 construct: also called mouse CHI3L1; murine CHI3L1
Described as above.

The target of assay [3] is T3, human CHI3L1 extracellular domain fused with flag and His tag recombinant protein (human, UniProt P36222 22-383).
T3 construct: extracellular domain; also called hCHI3L1/flag-His; hCHI3L1; not shown: flag and His tag
T3 sequence (P36222 22-383 limits assumed): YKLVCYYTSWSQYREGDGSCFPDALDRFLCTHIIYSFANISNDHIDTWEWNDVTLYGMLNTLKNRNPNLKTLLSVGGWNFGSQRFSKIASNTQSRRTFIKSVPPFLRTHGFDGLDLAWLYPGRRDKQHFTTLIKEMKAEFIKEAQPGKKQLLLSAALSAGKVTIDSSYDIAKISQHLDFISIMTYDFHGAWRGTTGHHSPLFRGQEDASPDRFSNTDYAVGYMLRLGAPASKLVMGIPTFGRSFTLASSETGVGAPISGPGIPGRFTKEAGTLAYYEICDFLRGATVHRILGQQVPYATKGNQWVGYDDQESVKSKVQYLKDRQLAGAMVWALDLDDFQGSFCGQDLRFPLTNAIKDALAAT
Description: BLI (ForteBio Octet), mAb captured on AHC sensor, hCHI3L1/flag-His as analyte. Background: In BLI a coated tip is dipped into the sample, and binding shifts an interference pattern.

Assay [4] deals with T1, recombinant human CHI3L1. Description: ELISA: coated recombinant protein titrated 2.50 to 0.00 µg/ml, antibody at 1 µg/ml, OD450. (ELISA stands for enzyme-linked immunosorbent assay.)
In assay [5] the target is T4, human chitotriosidase-1 (CHIT1) (human, UniProt Q13231 22-466, limits assumed). The assay is described as above.
T4 sequence (Q13231 22-466 limits assumed): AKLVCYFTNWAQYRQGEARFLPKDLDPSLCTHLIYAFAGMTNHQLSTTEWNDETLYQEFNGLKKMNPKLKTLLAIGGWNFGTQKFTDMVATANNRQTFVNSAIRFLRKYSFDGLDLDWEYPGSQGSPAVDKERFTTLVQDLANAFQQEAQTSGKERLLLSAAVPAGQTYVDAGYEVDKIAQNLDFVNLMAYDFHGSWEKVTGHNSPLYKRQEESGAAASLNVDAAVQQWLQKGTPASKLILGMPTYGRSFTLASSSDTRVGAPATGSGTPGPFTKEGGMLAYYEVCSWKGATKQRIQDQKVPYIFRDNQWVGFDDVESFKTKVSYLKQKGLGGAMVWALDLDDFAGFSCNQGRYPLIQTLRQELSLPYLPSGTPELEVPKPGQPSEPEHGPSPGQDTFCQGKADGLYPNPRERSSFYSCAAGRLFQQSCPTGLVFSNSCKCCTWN
Assay [6] deals with T5, CHI3L2 (human, UniProt Q15782 27-390, limits assumed).
T5 construct: The sentence reads 'human chitotriosidase-1 (CHIT1) and CHI3L2'
T5 sequence (looked up): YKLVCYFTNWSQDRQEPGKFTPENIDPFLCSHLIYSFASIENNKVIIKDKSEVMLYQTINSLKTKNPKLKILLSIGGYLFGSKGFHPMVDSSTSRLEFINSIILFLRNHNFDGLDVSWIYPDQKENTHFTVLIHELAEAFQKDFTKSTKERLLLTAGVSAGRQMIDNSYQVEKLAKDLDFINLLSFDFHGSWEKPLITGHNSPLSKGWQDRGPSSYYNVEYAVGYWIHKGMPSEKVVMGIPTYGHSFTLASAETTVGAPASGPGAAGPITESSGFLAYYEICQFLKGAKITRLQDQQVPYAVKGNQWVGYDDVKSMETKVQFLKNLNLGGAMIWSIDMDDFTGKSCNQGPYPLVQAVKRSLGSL
Described as above.

Assay [7] concerns the target T2, mouse rCHI3L1. Description: phage ELISA (3rd round single clone screening): coated protein, rescued phage supernatant, anti-M13-HRP, OD450.
For assay [8], the target named is T1, recombinant human CHI3L1. Description: phage ELISA (4th round single clone screening): coated protein, rescued phage supernatant, anti-M13-HRP, OD450. This is another data set of the same source.
The target in assay [9] is T2, mouse rCHI3L1. The description is as above. This is another data set of the same source.
The target of assay [10] is T1, recombinant human CHI3L1. Description: ELISA: coated recombinant protein titrated 2.50 to 0.00 µg/ml, antibody at 1 µg/ml, OD450. The source holds these as a separate data set.
Assay [11] concerns the target T4, human chitotriosidase-1 (CHIT1). Described as above. This is another data set of the same source.
The target in assay [12] is T5, CHI3L2. The assay is described as above. This is another data set of the same source.
For assay [13], the target named is T1, recombinant human CHI3L1. Description: ELISA: coated human rCHI3L1 titrated 2.5 to 0 µg/ml, antibody concentration not given, OD450.
Assay [14] deals with T1, recombinant human CHI3L1. Description: ELISA: coated recombinant protein titrated 2.50 to 0.00 µg/ml, antibody at 1 µg/ml, OD450. The source holds these as a separate data set.
Assay [15] deals with T4, human chitotriosidase-1 (CHIT1). The description is as above. This is another data set of the same source.
Assay [16] concerns the target T5, CHI3L2. The assay is described as above. The source holds these as a separate data set.
In assay [17] the target is T2, mouse rCHI3L1. Description: ELISA: coated mouse rCHI3L1 titrated 2.5 to 0 µg/ml, antibody concentration not given, OD450.
The target in assay [18] is T1, recombinant human CHI3L1. Description: ELISA: coated recombinant protein titrated 2.50 to 0.00 µg/ml, antibody at 1 µg/ml, OD450. This is another data set of the same source.
Assay [19] has as its target T4, human chitotriosidase-1 (CHIT1). The assay is described as above. This is another data set of the same source.
Assay [20] deals with T5, CHI3L2. The assay is described as above. The source holds these as a separate data set.

Read-outs that look alike come from different tables or passages of the source.

T1 sequence (P36222 22-383 limits assumed): as the sequence (P36222 22-383 limits assumed) above
T2 sequence (Q61362 30-389 limits assumed): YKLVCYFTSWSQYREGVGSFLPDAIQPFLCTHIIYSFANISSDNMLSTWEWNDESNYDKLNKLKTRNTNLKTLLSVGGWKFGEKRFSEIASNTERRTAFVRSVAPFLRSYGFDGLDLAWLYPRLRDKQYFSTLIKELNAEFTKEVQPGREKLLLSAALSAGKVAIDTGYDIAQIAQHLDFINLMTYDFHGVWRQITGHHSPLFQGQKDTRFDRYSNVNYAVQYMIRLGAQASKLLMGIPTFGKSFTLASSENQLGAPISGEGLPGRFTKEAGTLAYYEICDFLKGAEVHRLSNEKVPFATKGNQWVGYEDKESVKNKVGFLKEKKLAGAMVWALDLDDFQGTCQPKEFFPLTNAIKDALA

B1: anti-CHI3L1 clone R4-2 (antibody, human IgG1, V domains shown)
VH: QVQLVQSGAEVKKPGSSVKVSCKASGGTFSSYAISWVRQAPGQGLEWMGGIIPIFGTANYAQKFQGRVTITADESTSTAYMELSSLRSEDTAVYYCARGDIEYYDILTGYYYYFDYWGQGTLVTVSS
VL: SYVLTQPPSVSVAPGKAARVTCGGNDIGSKSVQWYQQKPGQAPVLVISYDNDRPSGIPERFSGSNSGNTATLTISRVEAGDEADYYCQVWDSTSDHYVFGTGTKVTVQG
notes: also called #hu R4-2
Take B1: the figures for the binding result with recombinant human CHI3L1 [1] and with mouse rCHI3L1 [2] were “binds” and “no binding”, respectively.

B2: anti-CHI3L1 clone 293R3-2 (antibody, human IgG1, V domains shown)
VH: QVQLQESGPGLVEPSGTLSLTCAVSGGSISSSNWWSWVRQHPGKGLEWIGEIYHSGSTNYNPSLRSRVTISVDKSKNQFSLELSSVTAADTAVYYCAGDQRMEDDAFDIWGQGTMVTVSS
VL: QSALTQPASVSGSPGQSITISCTGTSSDVGGYNYVSWYQQHPGKAPKLMIYDVSNRPSGVSNRFSGSKSGNTASLTISGLQAEDEADYYCSSYTSSSTLYVFGTGTKVTVLG
notes: also called #hu 293R3-2; CHI3L1 293R3-2
One may read the Kd as the equilibrium constant for the complex coming apart. One may read the koff as the rate constant with which the complex falls apart. By kon is commonly meant the second-order rate constant of association. The term EC50 (read off the curve) denotes the concentration giving half of the maximal effect. For the molecule B2, in [3], the dissociation constant (Kd) was 2.79 nM, the koff came out at 0.00302 s⁻¹ and the kon was found to be 1.08e+06 M⁻¹ s⁻¹. Further, the “EC50 (read off the curve)” value with recombinant human CHI3L1 [4] was around 0.8 µg/mL. The binding result in assay [5] is “no binding”. Further, in the assay with CHI3L2 [6], the binding result is given as “no binding”. The binding result in the assay with mouse rCHI3L1 [7] is reported as “no binding”.

B3: anti-CHI3L1 clone R4-63 (antibody, human IgG1, V domains shown)
VH: EVQLVQSGAEVKKPGATVKISCKVSGYTFTDYYMHWVQQAPGKGLEWMGLVDPEDGETIYAEKFQGRVTITADTSTDTAYMELSSLRSEDTAVYYCATIGRPPDYWGQGTTVTVSS
VL: QSVLTQPPSVSAAPGQKVTISCSGSSSNIGNNYVSWYQQLPGTAPKLLIYDNNKRPSGIPDRFSGSKSGTSATLGITGLQTGDEADYYCGTWDSSLSVWVFGGGTKLTVLG
notes: also called #hu R4-63
Consider B3, for which the binding result with recombinant human CHI3L1 [8] is listed as “binds”; in the assay with mouse rCHI3L1 [9] it was “no binding”.

B4: anti-CHI3L1 clone R4-4 (antibody, V domains shown)
VH: EVQLLESGGGLLQPGGSLRLSCAASGLTFRNYAMTWVRQAPGKGLEWVSTISGNGDETFYADSVKGHFTISRDNSKDTVYLQMNSLRAEDTAVYYCAKGGHYSFFDSWGQGSPVTVSS
VL: NFMLTQPHSVSESPGKTVTISCTRSSGSIASNYVQWYQQRPGSSPTTVIYEDNQRPSGVPDRFSGSIDSSSNSASLTISGLKTEDEADYYCQSYDSSNYVFGTGTKVTVLG
notes: also called #hu R4-4; mAb clone R4-4
As for B4, the Kd in assay [3] stood at 1.13 nM. Besides, in assay [3], the off-rate constant (koff) was determined as 0.000353 s⁻¹. In addition, the kon in assay [3] came out at 313000 M⁻¹ s⁻¹. Moreover, the entries for the “EC50 (read off the curve)” value with recombinant human CHI3L1 [10] and with recombinant human CHI3L1 [13] were around 0.5 µg/mL and around 0.6 µg/mL, respectively. Also, the binding result is listed as “no binding” in assay [11], “no binding” with CHI3L2 [12] and “binds” with mouse rCHI3L1 [2].

B5: anti-CHI3L1 clone R4-62 (antibody, human IgG1, V domains shown)
VH: EVQLVESGGGLVQPGGSLRLSCAASGLTFPNFAMTWVRQTPGKGLQWVSTISGRGDEPFYADSVKGRFTISRDNSKNMVYLHMNSLRAEDTAIYYCAKGGHFSSWDYWGQGTLVTVSS
VL: NFMLTQPHSVSESPGKTVTISCTRSSGSIASNYVQWYQQRPDSAPTTVIYEDIERPSGVPDRFSGAIDSSANSASLTISGLQTEDEADYYCQSYDSSSYVFGTGTKVTVLG
notes: also called #hu R4-62
B5: the binding result with recombinant human CHI3L1 [8] is listed as “binds”.

B6: anti-CHI3L1 clone R4-93 (antibody, human IgG1, V domains shown)
VH: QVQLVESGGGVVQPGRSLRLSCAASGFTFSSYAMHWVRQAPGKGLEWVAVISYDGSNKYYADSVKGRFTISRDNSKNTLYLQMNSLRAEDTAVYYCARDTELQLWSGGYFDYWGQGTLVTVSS
VL: NFMLTQPHSVSESPGKTVIISCTRSSGSIAHNYVQWYQLRPGSAPTTVISDDDQRPSGVPDRFSGSIDSSSNSASLTISGLRTEDEADYYCQSFDDSNWVFGGGTRLTVLG
notes: also called #hu R4-93
B6: the binding result with recombinant human CHI3L1 [8] is on record as “binds”; with mouse rCHI3L1 [9], “no binding”.

B7: anti-CHI3L1 clone 293R3-4 (antibody, human IgG1, V domains shown)
VH: EVQLVQSGAEVKKPGATVKISCKVSGYSFTDYYIHWVQQAPGKGLEWMGFVDPENGETIYAEKFQGRVTITADTSTDTAYMELSSLRSDDTAVYYCATDRDYDDSSGNAFDIWGQGTMVTVSS
VL: SYELTQPPSVSVSTGQTATITCSGDILGDEYAFWYQQKAGQSPVLVIYLDTRRPSGIPERFSGSNSGDTATLTISETQPVDEAVYFCQGWDSSTALYVFGTGTKVTVLG
notes: also called #hu 293R3-4; CHI3L1 293R3-4
Take B7: in assay [3], the Kd is 3.94 nM, the off-rate (koff) is 0.00722 s⁻¹ and the on-rate constant (kon) came to 1.83e+06 M⁻¹ s⁻¹. Moreover, the 50% effective concentration (EC50 (read off the curve)) with recombinant human CHI3L1 [14] was around 0.8 µg/mL. Moreover, in assay [15], the binding result is recorded as “no binding”. Moreover, the binding result with CHI3L2 [16] was “no binding”. Also, the binding result in the assay with mouse rCHI3L1 [17] was “no binding (tested: 2.5 µg/ml coated protein)”.

B8: anti-CHI3L1 clone R4-54 (antibody, human IgG1, V domains shown)
VH: QVQLVESGGGVVQPGRSLRLSCAASGFTFSSYGMHWVRQAPGKGLEWVAVISYDGSDKDYADSVKGRFTISRDNSKNTLFLQMNSLRAEDTAVYYCARDDYDSTYYFDNWGQGTTVTVSS
VL: SYELTQPPSVSVSPGQTASITCSGDILADQYASWYQQKPGQSPVLVIYHDTKRPSGVPERFSGSTSGNTATLTISGTQAMDEAAYYCQAWDINTAWVFGGGTQLTVLG
notes: also called #hu R4-54; mAb clone R4-54
As to B8, in assay [3], the Kd amounted to 4.22 nM, the koff was 0.0065 s⁻¹ and the on-rate (kon) stood at 1.54e+06 M⁻¹ s⁻¹. For the same molecule, the 50% effective concentration (EC50 (read off the curve)) with recombinant human CHI3L1 [18] was around 0.8 µg/mL. For the same molecule, the binding result in assay [19] is listed as “no binding”. In addition, in the assay with CHI3L2 [20], the binding result was “no binding”. For the same molecule, in the assay with mouse rCHI3L1 [9], the binding result is “no binding”.

B9: anti-CHI3L1 clone R4-39 (antibody, human IgG1, V domains shown)
VH: EVQLVQSGAEVRKPGESLKISCKASGYRFTNYWIGWVRQMPGKGLEWMGIIYPDDSNTKYSPSFQGQVTISVDKPITTAYLQWSSLKASDTAMYYCVRLDTYYYDSSGFPFDAFDIWGQGTMVTVSS
VL: DIQMTQSPSSLSAFVGDRVTITCQASQDISTFLSWYQQKPGKAPKLLIYDATNLETGVPSRFSGRGSGTDFTFTISSLQPEDVATYFCQQYDFLPLSFGGGTKVEIRR
notes: also called #hu R4-39
For B9, the binding result with recombinant human CHI3L1 [1] was “binds”; with mouse rCHI3L1 [2] it was “no binding”.

B10: anti-CHI3L1 clone R4-53 (antibody, human IgG1, V domains shown)
VH: QVQLVQSGAEVKKPGASVKVSCKASGYTFTSYYMHWVRQAPGQGLEWMGIINPSGGSTSYAQKFQGRVTMTRDTSTSTVYMELSSLRSEDTAVYYCASDIGDYGDYWGQGTTVTVSS
VL: SYVLTQPPSVSVALGQTARITCGGNNIESKIVSWYQQKPGQAPVLVIFYDTDRPSGISERFSGSNSGNTATLTISRVEAGDEADYYCQVWDSNSDHVIFGGGTKLTVLG
notes: also called #hu R4-53
Turning to B10, the binding result with recombinant human CHI3L1 [8] is listed as “binds”; in the assay with mouse rCHI3L1 [9], “no binding”.

The values are drawn from US20240400717A1 (NATIONAL CHENG KUNG UNIVERSITY, published 2024).
